Test results published in the supplement of paper PMC6757056.
± gives the standard deviation of the averaged measurements.

B1: library; a variant is named by its letters at N, in order (parent)
chain: GCUGUCACCGGUGUAUUACCCUAGUGGUCGACCGGUCUGAUGAGUCUNNNNNNAGACGAAACAGC

Legend:
hypoxanthine [1] = variants of: B1; assay: normalized RNA/DNA level with ligand (relative to sTRSVctl = 100) (log10 (% of sTRSVctl)); ligand: hypoxanthine (xanthine aptamer); higher = less ribozyme self-cleavage, higher mRNA level; details: ligand concentration (+) RNA-Seq: 5 mM, HEK293T, reporter: mCherry (pCS4076), ligand present: yes
Outline: (§1)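 For each 6-well well, 4 µg of library plasmid encoding mCherry-linked ribozyme switches, or eGFP-linked ones in some ligand experiments, was transfected into HEK293T. Any ligand was added 1 h before transfection, and RNA was extracted with EDTA 72 h after it, then reverse-transcribed, amplified, barcoded and sequenced. RNA level was obtained by dividing RNA reads by DNA reads, normalizing to a spiked-in non-cleaving sequence or to the top sequences, then scaling and log-transforming. The top set was 25 sequences, scaling was ×100 with log10, and ≥100 DNA reads were required.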

hypoxanthine [2] = variants of: B1; assay: normalized RNA/DNA level without ligand (relative to sTRSVctl = 100) (log10 (% of sTRSVctl)); ligand: hypoxanthine (xanthine aptamer); higher = less ribozyme self-cleavage, higher mRNA level; details: HEK293T, reporter: mCherry (pCS4076), ligand present: no
Outline: as §1

Variant | normalized RNA/DNA level with ligand (log10) (hypoxanthine [1]) | normalized RNA/DNA level without ligand (log10) (hypoxanthine [2])
AUUACU | 1.956 ± 0.0042 | 1.819 ± 0.017
AUUACC | 1.926 ± 0.013 | 1.94 ± 0.038
GUUCGA | 1.95 ± 0.043 | 1.76 ± 0.023
GUUCGC | 1.97 ± 0.025 | 1.96 ± 0.048
GUUCGG | 1.908 ± 0.019 | 1.604 ± 0.0043
CUUGUC | 2 ± 0.037 | 1.98 ± 0.04
CUUGUA | 1.94 ± 0.062 | 1.83 ± 0.045
CUUGUU | 1.909 ± 0.0024 | 1.9 ± 0.022
CUUGUG | 1.96 ± 0.056 | 1.883 ± 0.015
AUUGAA | 1.91 ± 0.047 | 1.75 ± 0.026
AUUCCA | 1.92 ± 0.02 | 1.86 ± 0.042
AUUCCC | 1.9 ± 0.031 | 1.87 ± 0.03
GUGUAC | 1.92 ± 0.045 | 1.69 ± 0.11
AUUCAC | 1.953 ± 0.019 | 1.891 ± 0.0042
AUUCAA | 1.91 ± 0.047 | 1.82 ± 0.038
AUUCAG | 1.87 ± 0.053 | 1.58 ± 0.025
CUUGGU | 1.98 ± 0.051 | 1.95 ± 0.04
CUUGGG | 1.866 ± 0.013 | 1.587 ± 0.013
CUUGGC | 1.95 ± 0.069 | 1.9 ± 0.089
GUUAGC | 1.91 ± 0.023 | 1.683 ± 0.0085
GUUAGU | 1.9 ± 0.1 | 1.786 ± 0.011
GUUAUA | 1.881 ± 0.0041 | 1.83 ± 0.025

Variant | normalized RNA/DNA level with ligand (log10) (hypoxanthine [1]) | normalized RNA/DNA level without ligand (log10) (hypoxanthine [2])
GUUAUC | 1.96 ± 0.049 | 1.86 ± 0.037
GUUAUU | 1.971 ± 0.0054 | 1.916 ± 0.0092
GUUUUA | 1.93 ± 0.025 | 1.865 ± 0.0019
UUGUUC | 2.012 ± 0.012 | 2.01 ± 0.032
UUGUUA | 1.983 ± 0.0091 | 2.01 ± 0.043
UUGUUG | 2.027 ± 0.012 | 1.9556 ± 0.0016
UUGUUU | 2.039 ± 0.018 | 2.04 ± 0.042
GUGGUU | 1.96 ± 0.064 | 1.875 ± 0.017
UUUGGU | 1.976 ± 0.0094 | 1.8 ± 0.027
UUUGGA | 1.93 ± 0.027 | 1.67 ± 0.026
UUUGGG | 1.92 ± 0.025 | 1.71 ± 0.035
UUUGGC | 1.99 ± 0.059 | 1.92 ± 0.053
CUUAUC | 1.98 ± 0.02 | 1.987 ± 0.013
CUUAUU | 1.95 ± 0.047 | 1.872 ± 0.005
CUUAUG | 1.91 ± 0.039 | 1.91 ± 0.018
CUUACA | 1.932 ± 0.011 | 1.83 ± 0.062
CUUACU | 1.96 ± 0.028 | 1.856 ± 0.0075
CUUACG | 1.96 ± 0.025 | 1.87 ± 0.086
UUUUUA | 1.99 ± 0.064 | 1.93 ± 0.045
UUUUUG | 1.98 ± 0.025 | 1.83 ± 0.064
UUUUUC | 2.02 ± 0.043 | 1.99 ± 0.02
UUUUUU | 1.973 ± 0.01 | 1.973 ± 0.017

Variant | normalized RNA/DNA level with ligand (log10) (hypoxanthine [1]) | normalized RNA/DNA level without ligand (log10) (hypoxanthine [2])
UUGGUU | 1.99 ± 0.037 | 1.91 ± 0.025
CUUCCU | 1.98 ± 0.038 | 1.96 ± 0.032
CUUCCA | 1.93 ± 0.043 | 1.91 ± 0.091
UUUCCA | 1.95 ± 0.037 | 1.894 ± 0.0032
UUUCCC | 1.99 ± 0.024 | 1.96 ± 0.039
UUUCCU | 2.05 ± 0.069 | 1.9175 ± 0.00088
UUUCCG | 1.99 ± 0.063 | 1.83 ± 0.07
AUUUUA | 1.9 ± 0.029 | 1.83 ± 0.037
AUUUUC | 1.97 ± 0.056 | 1.925 ± 0.003
UUUACC | 1.957 ± 0.011 | 1.867 ± 0.014
UUUACU | 1.94 ± 0.024 | 1.876 ± 0.0032
UUUACG | 1.92 ± 0.035 | 1.76 ± 0.048
UUUACA | 1.97 ± 0.04 | 1.912 ± 0.011
GUUCUC | 1.981 ± 0.0077 | 1.95 ± 0.02
GUUCUG | 1.89 ± 0.058 | 1.54 ± 0.03
GUUCUU | 1.95 ± 0.051 | 1.92 ± 0.034
GUUCUA | 1.949 ± 0.011 | 1.89 ± 0.039
CUUUUG | 1.95 ± 0.042 | 1.89 ± 0.078
CUUUUU | 1.95 ± 0.058 | 1.806 ± 0.012
CUUUUC | 1.95 ± 0.06 | 1.92 ± 0.077
GUUUCU | 2 ± 0.063 | 2.02 ± 0.027
GUUUCA | 1.98 ± 0.024 | 1.9949 ± 0.0014

Variant | normalized RNA/DNA level with ligand (log10) (hypoxanthine [1]) | normalized RNA/DNA level without ligand (log10) (hypoxanthine [2])
GUUUCG | 1.9698 ± 0.0015 | 2.01 ± 0.098
CUUGAG | 1.87 ± 0.03 | 1.72 ± 0.068
CUUGAC | 1.923 ± 0.019 | 1.812 ± 0.0094
CUGUGU | 1.95 ± 0.047 | 1.898 ± 0.0077
CUGUGA | 1.976 ± 0.0082 | 1.82 ± 0.065
CUGUGC | 1.907 ± 0.018 | 1.86 ± 0.043
GUUGGU | 1.9283 ± 0.00055 | 1.78 ± 0.021
GUUGGA | 1.913 ± 0.0093 | 1.67 ± 0.042
GUUGGC | 1.9 ± 0.029 | 1.51 ± 0.025
CUGUUU | 2.02 ± 0.046 | 1.956 ± 0.006
CUGUUG | 1.964 ± 0.0068 | 1.8708 ± 0.00036
CUGUUC | 1.97 ± 0.021 | 1.861 ± 0.0058
CUUUCC | 1.91 ± 0.05 | 1.96 ± 0.039
CUUUCG | 1.97 ± 0.064 | 1.903 ± 0.014
CUUUCU | 1.93 ± 0.048 | 1.88 ± 0.038
UUGUAA | 1.976 ± 0.014 | 1.9 ± 0.042
UUGUAG | 1.99 ± 0.025 | 1.84 ± 0.025
UUGUAC | 2 ± 0.025 | 1.973 ± 0.0097
GUUGUC | 1.943 ± 0.0065 | 1.9 ± 0.052
AUUAGU | 1.95 ± 0.028 | 1.712 ± 0.0075
AUUGCA | 1.9 ± 0.0078 | 1.8 ± 0.026
AUUGCU | 1.92 ± 0.048 | 1.88 ± 0.048

Variant | normalized RNA/DNA level with ligand (log10) (hypoxanthine [1]) | normalized RNA/DNA level without ligand (log10) (hypoxanthine [2])
AUUGCC | 1.95 ± 0.021 | 1.85 ± 0.021
GUGUUC | 1.909 ± 0.0089 | 1.84 ± 0.044
GUGUUU | 1.92 ± 0.041 | 1.87 ± 0.046
GUGUUA | 1.912 ± 0.017 | 1.79 ± 0.047
UUUCAA | 1.9299 ± 0.00082 | 1.866 ± 0.015
UUUCAU | 1.915 ± 0.013 | 1.838 ± 0.0065
UUUCAC | 1.9884 ± 0.0013 | 1.91 ± 0.031
UUUCAG | 1.9 ± 0.021 | 1.71 ± 0.042
UUUGCG | 1.91 ± 0.11 | 1.778 ± 0.0053
UUUGCA | 1.94 ± 0.039 | 1.89 ± 0.033
UUUGCC | 1.92 ± 0.034 | 1.9514 ± 0.00098
UUUGCU | 1.95 ± 0.023 | 1.95 ± 0.022
CUGUAG | 1.88 ± 0.024 | 1.65 ± 0.032
CUGUAA | 1.917 ± 0.017 | 1.713 ± 0.006
CUGUAC | 1.93 ± 0.033 | 1.75 ± 0.093
AUUCUU | 1.94 ± 0.055 | 1.93 ± 0.023
AUUCUA | 1.92 ± 0.041 | 1.84 ± 0.062
AUUCUG | 1.85 ± 0.061 | 1.61 ± 0.039
CUUCAU | 1.921 ± 0.0074 | 1.88 ± 0.067
